Data published in US20240092867A1 (UNIVERSITY OF CHICAGO, published 2024).

Legend:
[1] = target: T1, vascular endothelial growth factor (VEGF)-A121 (human, UniProt P15692-9 27-147); assay: ELISA, peptide coated
T1 construct: mature; Purchased in mature form, not glycosylated
T1 sequence (looked up): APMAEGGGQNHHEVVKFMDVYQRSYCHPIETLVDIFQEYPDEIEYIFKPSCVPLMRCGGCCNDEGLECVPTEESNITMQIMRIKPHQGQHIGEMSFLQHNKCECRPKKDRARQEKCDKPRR
Experimental: (§1) (A) The location of laminin-derived peptides in the LG domain of laminin α3, α4, and α5 chains. (B-F) Affinity of heparin and GFs against chemically synthesized peptides derived from the LG domain of laminin α3, α4, and α5 chains. ELISA plates were coated with 10 μg/mL laminin peptide and further incubated with (B) biotinylated heparin, (C) VEGF-A165 and VEGF-A121, (D) PlGF-2 and PlGF-1, (E) PDGF-BB, or (F) FGF-2. Concentrations were 1 μg/mL for GFs and 10 μg/mL for heparin. Bound heparin was detected with streptavidin, and bound GFs with a specific antibody for each GF (n=4, mean±SEM). Statistical analyses were done using the Mann-Whitney U test by comparing the signals obtained from the laminin peptide- and the BSA-coated wells. *p<0.05, **p<0.01.
(§2) ELISA tests were performed as described above. […] 1 μg/mL of BSA served as non-binding protein control. After blocking with 2% BSA PBS-0.05% Tween 20 (PBS-T) solution, 1 μg/mL of the recombinant human proteins (VEGF-A121, VEGF-A165, PlGF-1, PlGF-2, PDGF-BB or FGF-2) or 10 μg/mL of biotinylated heparin (Sigma-Aldrich) were added. Bound GF was detected with biotinylated antibodies for human VEGF, PlGF, PDGF-BB, or FGF-2 (R&D Systems). The antibodies were detected by streptavidin-HRP (R&D Systems).

[2] = target: T2, placental growth factor (PlGF)-1 (human, UniProt P49763-2 19-149); assay: ELISA, peptide coated
T2 construct: mature; Purchased in mature form
T2 sequence (looked up): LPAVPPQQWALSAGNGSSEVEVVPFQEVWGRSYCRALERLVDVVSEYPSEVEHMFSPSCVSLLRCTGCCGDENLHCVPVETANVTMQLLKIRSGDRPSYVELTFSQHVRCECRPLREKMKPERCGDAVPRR
Experimental: as §1, §2

[3] = target: T3, fibroblast growth factor (FGF)-2 (human, UniProt P09038 143-288); assay: ELISA, peptide coated, GF 1 µg/mL
T3 construct: mature; Purchased in mature form
T3 sequence (P09038 143-288): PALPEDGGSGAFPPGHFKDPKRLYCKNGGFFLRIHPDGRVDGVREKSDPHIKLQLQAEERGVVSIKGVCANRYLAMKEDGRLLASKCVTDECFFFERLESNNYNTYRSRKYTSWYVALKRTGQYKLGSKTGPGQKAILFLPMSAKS
Experimental: as §1, §2

[4] = target: T4, vascular endothelial growth factor (VEGF)-A165 (human, UniProt P15692-4 27-191); assay: ELISA, peptide coated, GF 1 µg/mL
T4 construct: mature; Purchased in mature form, not glycosylated
Experimental: as §1, §2

[5] = target: T5, platelet-derived growth factor (PDGF)-BB (human, UniProt P01127 82-190); assay: ELISA, peptide coated, GF 1 µg/mL
T5 construct: mature; Purchased in mature form
T5 sequence (P01127 82-190): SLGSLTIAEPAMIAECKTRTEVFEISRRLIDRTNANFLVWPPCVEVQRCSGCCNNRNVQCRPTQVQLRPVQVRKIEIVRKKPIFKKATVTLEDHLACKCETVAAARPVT
Experimental: as §1, §2

[6] = target: T6, placental growth factor (PlGF)-2 (human, UniProt P49763-3 19-170); assay: ELISA, peptide coated, GF 1 µg/mL
T6 construct: mature; Purchased in mature form
T6 sequence (looked up): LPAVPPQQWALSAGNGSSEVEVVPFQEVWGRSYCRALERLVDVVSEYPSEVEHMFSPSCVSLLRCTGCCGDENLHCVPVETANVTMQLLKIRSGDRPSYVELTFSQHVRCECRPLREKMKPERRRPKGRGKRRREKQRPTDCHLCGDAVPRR
Experimental: as §1, §2

[7] = target: T7, recombinant human syndecan-2 (human, UniProt P34741 19-144, limits assumed); assay: ELISA, peptide coated, syndecan 1 µg/mL, anti-His detection
T7 construct: Histidine tag of unstated position and length
T7 sequence (P34741 19-144 limits assumed): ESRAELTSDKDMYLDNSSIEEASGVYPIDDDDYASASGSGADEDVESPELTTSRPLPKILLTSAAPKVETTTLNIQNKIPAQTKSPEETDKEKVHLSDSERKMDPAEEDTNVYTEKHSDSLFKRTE
Experimental: (§3) ELISA tests were performed as described above. In brief, ELISA plates were coated with 1 μg/mL laminin peptide (sequences are described in Table 1, chemically synthesized by Genscript) in PBS for 2 hrs at 37° C. 1 μg/mL of BSA served as non-binding protein control. After blocking with 2% BSA PBS-T solution, 1 μg/mL of the recombinant human syndecan-1, syndecan-2, syndecan-3, syndecan-4 (all syndecan proteins are histidine-tagged; SinoBiological) were added. Bound GF was detected with anti-histidine tag antibody (1:1000 dilution, BioLegend).

[8] = target: T8, recombinant human syndecan-1 (human, UniProt P18827 23-254, limits assumed); assay: as above
T8 construct: Histidine tag of unstated position and length
T8 sequence (looked up): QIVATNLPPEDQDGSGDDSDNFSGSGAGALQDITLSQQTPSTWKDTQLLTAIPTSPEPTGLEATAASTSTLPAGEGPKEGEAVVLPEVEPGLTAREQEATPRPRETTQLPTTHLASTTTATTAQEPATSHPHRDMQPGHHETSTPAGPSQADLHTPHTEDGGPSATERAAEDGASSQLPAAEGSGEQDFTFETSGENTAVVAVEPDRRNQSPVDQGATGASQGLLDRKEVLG
Experimental: as §3

[9] = target: T9, recombinant human syndecan-4 (human, UniProt P31431 19-145, limits assumed); assay: as above
T9 construct: Histidine tag of unstated position and length
T9 sequence (looked up): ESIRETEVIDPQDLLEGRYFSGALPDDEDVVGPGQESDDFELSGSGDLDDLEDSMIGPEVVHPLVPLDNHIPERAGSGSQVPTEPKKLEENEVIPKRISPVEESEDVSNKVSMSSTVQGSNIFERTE
Experimental: as §3

human plasma-derived vWF = target: T10, human plasma-derived vWF (human, UniProt P04275 764-2813); assay: ELISA, GF coated 50 nM, vWF 1 µg/mL
T10 construct: mature; also called plasma-derived purified vWF; von Willebrand factor
Experimental: ELISA tests were performed as previously reported1. In brief, ELISA plates (med-binding, Greiner Bio-One) were coated with 50 nM GFs at 37° C. for 2 hrs. […] Then, HRP conjugated goat anti-rabbit antibody (Jackson ImmunoResearch) was added. After 60 min of incubation, 50 μL TMB substrate (Sigma-Aldrich) was added. The reaction was stopped by adding 25 μL of 2N H2SO4. Subsequently, the absorbance at 450 nm was measured and subtracted the absorbance at 570 nm.

laminin-421 = target: T11, laminin-421 (human, UniProt Q16363 25-1823; P55268 33-1798; P11047 34-1609); assay: ELISA, GF coated, laminin 10 nM
T11 construct: Full-length recombinant human laminin isoform (BioLamina); chains read from the isoform name
Experimental: (§4) ELISA tests were performed as previously reported. In brief, ELISA plates (med-binding, Greiner Bio-One) were coated with 50 nM GFs at 37° C. for more than 2 hrs. […] Bound laminin was detected with rabbit anti-human laminin γ1 chain antibody (1:1000 dilution, Assay biotech) or rabbit anti-human laminin α3 chain antibody (1:1000 dilution, Assay biotech). After incubation with biotinylated anti-rabbit antibody for 60 min at room temperature (RT), HRP conjugated streptavidin (Jackson ImmunoResearch) was added. After 60 min of incubation at RT, 50 μL TMB substrate (Sigma-Aldrich) was added. The reactions were stopped by adding 25 μL of 2 N H₂SO₄. Subsequently, the absorbance at 450 nm was measured with a reference of 570 nm.

laminin-211 = target: T12, laminin-211 (human, UniProt P24043 23-3122; P07942 22-1786; P11047 34-1609); assay: ELISA, GF coated, laminin 10 nM
T12 construct: Full-length recombinant human laminin isoform (BioLamina); chains read from the isoform name
Experimental: as §4

laminin-521 = target: T13, laminin-521 (human, UniProt O15230 36-3695; P55268 33-1798; P11047 34-1609); assay: ELISA, GF coated, laminin 10 nM
T13 construct: Full-length recombinant human laminin isoform (BioLamina); chains read from the isoform name
Experimental: as §4

laminin-411 = target: T14, laminin-411 (human, UniProt Q16363 25-1823; P07942 22-1786; P11047 34-1609); assay: ELISA, GF coated, laminin 10 nM
T14 construct: Full-length recombinant human laminin isoform (BioLamina); chains read from the isoform name
Experimental: as §4

laminin-332 = target: T15, laminin-332 (human, UniProt Q16787 28-1724; Q13751 18-1172; Q13753 22-1193, limits assumed); assay: ELISA, GF coated, laminin 10 nM
T15 construct: Full-length recombinant human laminin isoform (BioLamina); chains read from the isoform name
T15 sequence (Q16787 other isoform, or with tags, fused parts or gaps limits assumed, chain 1 of 3): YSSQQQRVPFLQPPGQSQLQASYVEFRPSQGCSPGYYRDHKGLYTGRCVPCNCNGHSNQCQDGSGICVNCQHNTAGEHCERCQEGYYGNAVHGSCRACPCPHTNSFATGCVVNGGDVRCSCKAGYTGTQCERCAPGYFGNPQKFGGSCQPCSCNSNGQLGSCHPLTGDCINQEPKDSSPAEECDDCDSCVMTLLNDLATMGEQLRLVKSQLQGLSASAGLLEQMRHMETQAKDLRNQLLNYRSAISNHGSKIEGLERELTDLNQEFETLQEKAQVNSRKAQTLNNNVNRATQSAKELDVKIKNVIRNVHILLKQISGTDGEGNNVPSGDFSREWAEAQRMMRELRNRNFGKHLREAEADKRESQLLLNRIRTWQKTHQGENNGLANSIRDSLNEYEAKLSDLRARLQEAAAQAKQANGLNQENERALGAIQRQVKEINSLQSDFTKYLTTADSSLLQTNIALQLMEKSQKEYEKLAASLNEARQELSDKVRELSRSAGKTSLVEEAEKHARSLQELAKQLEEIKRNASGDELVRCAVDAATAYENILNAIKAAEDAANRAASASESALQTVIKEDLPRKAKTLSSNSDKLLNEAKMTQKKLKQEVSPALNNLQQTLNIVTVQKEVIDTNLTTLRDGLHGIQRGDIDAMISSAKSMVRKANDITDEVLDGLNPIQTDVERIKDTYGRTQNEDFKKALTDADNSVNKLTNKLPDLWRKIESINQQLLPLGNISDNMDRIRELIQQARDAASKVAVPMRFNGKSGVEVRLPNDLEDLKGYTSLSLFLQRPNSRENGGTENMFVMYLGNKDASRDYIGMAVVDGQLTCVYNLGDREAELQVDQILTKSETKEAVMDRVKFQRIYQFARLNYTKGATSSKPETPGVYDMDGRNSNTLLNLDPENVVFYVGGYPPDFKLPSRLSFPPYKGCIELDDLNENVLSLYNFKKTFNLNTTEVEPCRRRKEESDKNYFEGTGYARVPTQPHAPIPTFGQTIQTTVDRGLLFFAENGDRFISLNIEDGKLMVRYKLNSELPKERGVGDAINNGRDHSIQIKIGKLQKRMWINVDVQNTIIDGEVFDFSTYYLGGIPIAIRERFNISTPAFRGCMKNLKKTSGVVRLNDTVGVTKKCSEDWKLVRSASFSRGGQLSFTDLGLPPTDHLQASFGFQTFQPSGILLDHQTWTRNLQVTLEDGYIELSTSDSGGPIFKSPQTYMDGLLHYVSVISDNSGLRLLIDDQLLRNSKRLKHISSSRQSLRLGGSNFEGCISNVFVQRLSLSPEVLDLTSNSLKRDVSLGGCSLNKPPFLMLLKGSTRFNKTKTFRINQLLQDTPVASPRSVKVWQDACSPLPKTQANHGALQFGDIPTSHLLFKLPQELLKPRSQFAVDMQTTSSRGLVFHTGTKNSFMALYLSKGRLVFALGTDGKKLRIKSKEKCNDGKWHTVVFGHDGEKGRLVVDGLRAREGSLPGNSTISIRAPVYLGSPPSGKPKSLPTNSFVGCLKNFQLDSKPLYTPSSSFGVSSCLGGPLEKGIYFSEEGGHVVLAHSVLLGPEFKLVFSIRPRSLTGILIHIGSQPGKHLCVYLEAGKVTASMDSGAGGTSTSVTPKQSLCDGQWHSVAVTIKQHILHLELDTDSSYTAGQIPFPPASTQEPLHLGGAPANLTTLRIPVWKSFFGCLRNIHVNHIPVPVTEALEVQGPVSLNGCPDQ
T15 sequence (Q13751 18-1172 limits assumed, chain 2 of 3): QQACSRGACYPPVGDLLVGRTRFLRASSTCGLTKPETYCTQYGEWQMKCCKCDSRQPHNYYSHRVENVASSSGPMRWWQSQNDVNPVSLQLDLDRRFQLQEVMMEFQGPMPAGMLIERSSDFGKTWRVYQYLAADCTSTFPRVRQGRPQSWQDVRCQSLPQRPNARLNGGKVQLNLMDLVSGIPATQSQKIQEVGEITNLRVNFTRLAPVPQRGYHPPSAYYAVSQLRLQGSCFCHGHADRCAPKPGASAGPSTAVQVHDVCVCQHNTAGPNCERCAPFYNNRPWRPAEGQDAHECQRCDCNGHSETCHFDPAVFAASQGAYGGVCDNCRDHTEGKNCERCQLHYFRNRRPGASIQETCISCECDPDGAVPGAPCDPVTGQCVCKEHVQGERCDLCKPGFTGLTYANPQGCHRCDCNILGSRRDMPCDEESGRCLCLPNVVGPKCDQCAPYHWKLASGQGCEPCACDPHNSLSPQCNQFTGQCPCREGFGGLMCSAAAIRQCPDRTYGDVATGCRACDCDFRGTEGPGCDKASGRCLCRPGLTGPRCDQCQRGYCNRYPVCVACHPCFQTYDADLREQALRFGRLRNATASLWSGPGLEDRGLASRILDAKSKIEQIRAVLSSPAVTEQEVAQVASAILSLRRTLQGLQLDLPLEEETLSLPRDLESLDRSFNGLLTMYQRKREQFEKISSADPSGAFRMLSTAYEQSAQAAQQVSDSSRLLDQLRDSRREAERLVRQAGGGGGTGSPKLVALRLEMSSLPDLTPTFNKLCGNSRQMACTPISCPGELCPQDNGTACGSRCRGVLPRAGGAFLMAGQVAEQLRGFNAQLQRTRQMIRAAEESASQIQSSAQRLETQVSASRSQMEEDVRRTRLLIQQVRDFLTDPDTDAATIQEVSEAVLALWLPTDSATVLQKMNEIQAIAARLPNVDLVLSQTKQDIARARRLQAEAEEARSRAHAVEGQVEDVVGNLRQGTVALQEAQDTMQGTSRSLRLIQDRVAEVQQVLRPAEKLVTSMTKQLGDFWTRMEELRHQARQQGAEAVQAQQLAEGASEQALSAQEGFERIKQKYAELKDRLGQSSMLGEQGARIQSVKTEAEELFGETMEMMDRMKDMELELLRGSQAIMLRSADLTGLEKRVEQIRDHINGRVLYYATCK
T15 sequence (Q13753 22-1193 limits assumed, chain 3 of 3): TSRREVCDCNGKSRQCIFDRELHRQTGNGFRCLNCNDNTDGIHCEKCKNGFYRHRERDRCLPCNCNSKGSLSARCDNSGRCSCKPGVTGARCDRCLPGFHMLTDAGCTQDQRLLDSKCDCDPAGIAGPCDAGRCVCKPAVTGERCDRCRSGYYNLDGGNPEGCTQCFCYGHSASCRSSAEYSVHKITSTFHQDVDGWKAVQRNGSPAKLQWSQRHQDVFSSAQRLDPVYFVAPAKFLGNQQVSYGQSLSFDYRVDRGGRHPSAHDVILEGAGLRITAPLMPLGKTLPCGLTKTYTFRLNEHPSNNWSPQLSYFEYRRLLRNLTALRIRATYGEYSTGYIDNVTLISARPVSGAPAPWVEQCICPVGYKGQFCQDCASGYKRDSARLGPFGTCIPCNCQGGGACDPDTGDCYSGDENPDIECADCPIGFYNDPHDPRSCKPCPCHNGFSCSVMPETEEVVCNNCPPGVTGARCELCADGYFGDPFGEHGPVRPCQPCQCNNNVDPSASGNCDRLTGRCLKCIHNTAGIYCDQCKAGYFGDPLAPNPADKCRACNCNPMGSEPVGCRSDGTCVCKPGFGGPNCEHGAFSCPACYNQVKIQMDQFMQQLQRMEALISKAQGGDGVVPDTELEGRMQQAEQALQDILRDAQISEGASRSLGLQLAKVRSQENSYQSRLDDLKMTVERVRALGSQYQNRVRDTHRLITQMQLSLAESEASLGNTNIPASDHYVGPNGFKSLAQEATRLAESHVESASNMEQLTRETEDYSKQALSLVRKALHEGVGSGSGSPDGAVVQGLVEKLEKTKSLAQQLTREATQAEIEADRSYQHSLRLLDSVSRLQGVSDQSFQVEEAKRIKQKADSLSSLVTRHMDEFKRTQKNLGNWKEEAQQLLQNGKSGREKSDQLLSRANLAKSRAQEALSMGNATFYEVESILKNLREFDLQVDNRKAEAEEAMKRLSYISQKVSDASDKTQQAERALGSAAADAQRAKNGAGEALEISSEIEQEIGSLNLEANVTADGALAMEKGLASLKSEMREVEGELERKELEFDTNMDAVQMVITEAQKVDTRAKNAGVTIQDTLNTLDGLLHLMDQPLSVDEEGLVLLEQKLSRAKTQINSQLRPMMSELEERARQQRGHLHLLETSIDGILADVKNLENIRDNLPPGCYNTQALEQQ
Experimental: as §4

laminin-511 = target: T16, laminin-511 (human, UniProt O15230 36-3695; P07942 22-1786; P11047 34-1609); assay: ELISA, GF coated, laminin 10 nM
T16 construct: Full-length recombinant human laminin isoform (BioLamina); chains read from the isoform name
Experimental: as §4

laminin-111 = target: T17, laminin-111 (human, UniProt P25391 18-3075; P07942 22-1786; P11047 34-1609); assay: ELISA, GF coated, laminin 10 nM
T17 construct: Full-length recombinant human laminin isoform (BioLamina); Chain composition is read from the isoform name
Experimental: as §4

[10] = target: T3, fibroblast growth factor (FGF)-2; assay: ELISA, HBD peptides
[11] = target: T4, vascular endothelial growth factor …; assay: ELISA, HBD peptides
Target sequence in this assay (P15692 other isoform, or with tags, fused parts or gaps limits assumed): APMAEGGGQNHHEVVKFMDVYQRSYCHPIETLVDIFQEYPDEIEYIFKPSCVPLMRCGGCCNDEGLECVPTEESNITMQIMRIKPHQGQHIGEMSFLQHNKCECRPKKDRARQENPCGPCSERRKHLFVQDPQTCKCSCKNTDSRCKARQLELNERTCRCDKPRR

[12] = target: T5, platelet-derived growth factor (PDGF)-BB; assay: ELISA, HBD peptides

RLVFALGTDGKKLRIKSKEKCNDGK (Chemically synthesized (Genscript)) [laminin α3 3043-3067 peptide (LG4)]
binding result [1]: no binding (tested: 1 µg/mL) | binding result [2]: no binding (tested: 1 µg/mL) | binding result [3]: binds | binding result [4]: binds | binding result [5]: binds | binding result [6]: binds | binding result [7]: binds | binding result [8]: binds | binding result [9]: binds

TLFLAHGRLVYMFNVGHKKLKIR (Chemically synthesized (Genscript)) [laminin α4 1521-1543 peptide (LG4)]
binding result [1]: no binding (tested: 1 µg/mL) | binding result [2]: no binding (tested: 1 µg/mL) | binding result [3]: binds | binding result [4]: binds | binding result [6]: binds | binding result [7]: binds | binding result [8]: binds | binding result [9]: binds

B1: fibroblast growth factor (FGF)-6 (ligand, UniProt P10767 38-208, looked up)
chain: SPAGTRANNTLLDSRGWGTLLSRSRAGLAGEIAGVNWESGYLVGIKRQRRLYCNVGIGFHLQVLPDGRISGTHEENPYSLLEISTVERGVVSLFGVRSALFVAMNSKGRLYATPSFQEECKFRETLLPNNYNAYESDLYQGTYIALSKYGRVKRGSKVSPIMTVTHFLPRI
notes: mature; Purchased in mature form
binding result (human plasma-derived vWF): no binding | binding result (laminin-421): no binding (tested: A450 0.1) | binding result (laminin-211): no binding (tested: A450 0.1) | binding result (laminin-521): no binding (tested: A450 0.1) | binding result (laminin-411): no binding (tested: A450 0.1) | binding result (laminin-332): no binding (tested: A450 0.1) | binding result (laminin-511): no binding (tested: A450 0.1) | binding result (laminin-111): no binding (tested: A450 0.1)

B2: bone morphogenetic protein (BMP)-7 (ligand, UniProt P18075 293-431, looked up)
chain: STGSKQRSQNRSKTPKNQEALRMANVAENSSSDQRQACKKHELYVSFRDLGWQDWIIAPEGYAAYYCEGECAFPLNSYMNATNHAIVQTLVHFINPETVPKPCCAPTQLNAISVLYFDDSSNVILKKYRNMVVRACGCH
notes: as for B1
binding result (human plasma-derived vWF): no binding | binding result (laminin-421): no binding (tested: A450 0.1) | binding result (laminin-211): no binding (tested: A450 0.1) | binding result (laminin-521): no binding (tested: A450 0.1) | binding result (laminin-411): no binding (tested: A450 0.1) | binding result (laminin-332): no binding (tested: A450 0.1) | binding result (laminin-511): no binding (tested: A450 0.1) | binding result (laminin-111): no binding (tested: A450 0.1)

B3: vWF A1 HBD R1341L (peptide)
peptide: YIGLKDRKRPSELLRIASQVKYA
notes: The entry already carries the substitution
binding result [10]: no binding | binding result [11]: no binding | binding result [12]: no binding

B4: vWF A1 HBD R1341P (peptide)
peptide: YIGLKDRKRPSELPRIASQVKYA
notes: as for B3
binding result [10]: no binding | binding result [11]: no binding | binding result [12]: no binding

B5: vWF A1 HBD R1341Q (peptide)
peptide: YIGLKDRKRPSELQRIASQVKYA
notes: as for B3
binding result [10]: no binding | binding result [11]: no binding | binding result [12]: no binding

B6: vWF A1 HBD R1341S (peptide)
peptide: YIGLKDRKRPSELSRIASQVKYA
notes: as for B3
binding result [10]: no binding | binding result [11]: no binding | binding result [12]: no binding

B7: vWF A1 HBD R1341W (peptide)
peptide: YIGLKDRKRPSELWRIASQVKYA
notes: as for B3
binding result [10]: no binding | binding result [11]: no binding | binding result [12]: no binding

B8: bone morphogenetic protein (BMP)-4 (ligand, UniProt P12644 293-408, looked up)
chain: SPKHHSQRARKKNKNCRRHSLYVDFSDVGWNDWIVAPPGYQAFYCHGDCPFPLADHLNSTNHAIVQTLVNSVNSSIPKACCVPTELSAISMLYLDEYDKVVLKNYQEMVVEGCGCR
notes: as for B1
binding result (laminin-421): no binding (tested: A450 0.1) | binding result (laminin-211): no binding (tested: A450 0.1) | binding result (laminin-521): no binding (tested: A450 0.1) | binding result (laminin-411): no binding (tested: A450 0.1) | binding result (laminin-332): no binding (tested: A450 0.1) | binding result (laminin-511): no binding (tested: A450 0.1) | binding result (laminin-111): no binding (tested: A450 0.1)
